Experimental data as given in paper PMC5024704.

Columns and labels:
[1] = target: SgcE6 flavin reductase (Streptomyces globisporus); experiment: SEC
[2] = target: SgcC FADH2-dependent monooxygenase (Streptomyces globisporus); experiment: SEC

Substance | stoichiometry N [1] | stoichiometry N [2]
SgcE6 flavin reductase (enzyme) | 2 | –
SgcC FADH2-dependent monooxygenase (enzyme) | – | 4
